IntAct's records for PubMed 26344566

Target: PEX5, P50542-3

Serine-protein kinase ATM (Homo sapiens), Q13315 R3047Q
effect of a mutation on the interaction: decreasing interaction strength
